Assay results reported in the supplement of paper PMC9170038.

Test system: MS2 coat protein
Assay: apparent KD of MS2 coat protein; designed switch direction (-1 OFF switch, 1 ON switch): -1; higher = weaker reporter binding
How it was run: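 Designed RNA switches with common flanks were made on Illumina chips by stalled E. coli RNA polymerase. Titration with SNAP-549-labelled MS2 coat protein doubled from 0.7 or 1.5 nM up to 3 µM. Apparent KD is each design's median over clusters after curve-fitting normalised fluorescence.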

[1] = Eterna round: R95, input ligand: FMN 200 uM
[2] = Eterna round: R95, input ligand: microRNA oligo, concentration not stated
[3] = Eterna round: R95, input ligand: none
[4] = input ligand: microRNA oligo, concentration not stated

| Sequence | apparent KD of MS2 coat protein [2] [µM] | apparent KD of MS2 coat protein (input ligand: FMN 200 uM) [µM] | apparent KD of MS2 coat protein (input ligand: none) [µM] | further results |
| --- | --- | --- | --- | --- |
| AGUAGAUCUACGCUUGCGUGGAUCUGCAAUGCAGGUGUUACAUGAGGAUCACCCAUGUCCUCAUUUGUUCGUCUUAG [JL turnoff v2 99.09] (puzzle: Sensor v3, turn-off variant 2) | 0.322 | – | – | apparent KD of MS2 coat protein [1]: 0.568 µM; apparent KD of MS2 coat protein [3]: 0.395 µM |
| GUACUACAUGAGGAUCACCCAUGUCAGGAUAUUUGAAUUUCAUCAAAAGAUGAAAUUCGGAGAAGGGACAGUAC [Omei Ex1 A7] (Eterna round: R97, puzzle: Exclusion 1) | – | 0.0311 | 0.0217 | – |
| ACAUGAGGAUCACCCAUGUAAUCAUAAUGGCUGAUGUAGAGUCAGGAUAUGUGUGGCUUUCUAUCGCAGAAGGGACAAGACUGG [Deportation 34 - Jieux - Exclusion NG 3] (Eterna round: R96, puzzle: Exclusion NG 3) | – | 0.0263 | 0.0307 | apparent KD of MS2 coat protein [4]: 0.0264 µM |
| GGUUUGCAGCAGGAUAUCCAUCCGCGGUAUGGUGGAGAAGGGCUGACAUGAGGAUCACCCAUGUGCGUCCUAGG [salish99_ex6_r4_017] (Eterna round: R97, puzzle: Exclusion 6) | – | 0.0586 | 0.0276 | – |
| GUAUAUAGUGUGAGGAUAUGCUGGUCCUUGGAUCAGCAGAAGGCACAUGAGGAUCACCCAUGUAGUUUAUUAUU [Mat - Exclusion 4 - JL Mod - D9] (puzzle: Brourd's mod of Exclusion 4) | 0.0241 | – | – | – |
| AUAAAACGAGGAUAUGCUGGGCUUCUGUGAUGCAUAUGCUCACAUGAGGAUCACCCAUGUAGAAGGUGUAAAAU [Laaceve] (puzzle: Exclusion 2) | 0.22 | – | – | – |
| AAACCUGCCCAUGACCGCAAGCUUUUUGCUUGUCUCACCACAUGAGGAUCACCCAUGUGACAUGGGCUCCUUAUAAA [Orvesovera] (puzzle: Sensor v3, turn-off variant 2) | 0.00996 | – | – | apparent KD of MS2 coat protein [1]: 0.0137 µM; apparent KD of MS2 coat protein [3]: 0.012 µM |
| UGAGACUGAGGAUAUACUGGCCCAUAAAGUGGGUCGUGGGUACAUGAGGAUCACCCAUGUAGAAGGCAGCCUCG [Omei Repeat Sequence v6] (Eterna round: R97, puzzle: Exclusion 2) | – | 0.656 | 0.0554 | – |
| CGUGACUCAGGAUAUCUAUAGUGUCACAUGAGGAUCACCCAUGUCCAGCGAAAGCUGGAGGGAGAAGGGAGUCACG [Fiskers Ex 5 - 43] (puzzle: Exclusion 5) | 0.0905 | – | – | – |
| CAUUUGUGAGGAUAUCAGGUGUGCUAGCGUACUGGUACAUCUGAGAAGGCACAUGAGGAUCACCCAUGUUCCUU [Mat - Exclusion 4 - Mod of JL - D36] (puzzle: Exclusion 4) | 0.0128 | – | – | – |
| CCAUCUCUAGUAGGAUAUGUCGGAUAUGUUGUUGAGGUUCACCCAACGACGUCAAUGACAGAAGGACAGAAGGACUCUCGAUGC [pwkr exNG2 2xFMN 1xF5.6] (Eterna round: R96, puzzle: Exclusion NG 2) | – | 0.114 | 0.183 | apparent KD of MS2 coat protein [4]: 0.463 µM |
| GAGGAACAUGAGGAUCACCCAUGUGAGGAUAUGCAUAGUGAGGUAGUAGACGUUGAAUGCAGAAGGUACACUGA [JR_Exclu1_Sub078] (puzzle: Exclusion 1) | 0.0357 | – | – | – |
| AAUGAUUGACGAGGAUAUUGUGGUAAAACACGACGAGAAGGCGUCUGUCACAUGAGGAUCACCCAUGUGAGCUUUGUGGAUAGA [Ex NG1 #72] (Eterna round: R96, puzzle: Exclusion NG 1) | – | 0.0523 | 0.0598 | apparent KD of MS2 coat protein [4]: 0.0336 µM |
| CAGUACUGAGGAUAUACAUGAGGAUCACCCAUGUGCACCAGCUAGGAUACUAGCAAAAGUAGAAGGCAGUACUG [Mat - Exclusion 3 - Eli Mod - D19] (Eterna round: R97, puzzle: Exclusion 3) | – | 0.118 | 0.0161 | – |
| ACAUGUUGCGCAGGAUAUGGGACACAUGAGGAUCACCCAUGUGGUUACAUGUCUUACCAAGCGUCCCAGAAGGGCGUGAACAUG [Ex NG2 #31] (Eterna round: R96, puzzle: Exclusion NG 2) | – | 0.0286 | 0.0221 | apparent KD of MS2 coat protein [4]: 0.0184 µM |
| GCACGACAUCAGGAUAUGACUAGCUGCGGCUAGUCAGAAGGGAUGACAUGAGGAUCACCCAUGUGAUCACGUGC [E6/2-B3] (Eterna round: R97, puzzle: Exclusion 6) | – | 0.114 | 0.0853 | – |
| CCCGCGGGCGCAGGAUAUACAUGAGGAUCACCCAUGUGCCGCGCAAGCGGCAGAGCGGACAACGGGUAGAAGGGCGCCCGCGGG [first try] (Eterna round: R96, puzzle: Exclusion NG 2) | – | 0.875 | 0.492 | apparent KD of MS2 coat protein [4]: 0.202 µM |
| UUUUUGUGAGGAUAUCAGUAGUAAAAAAAUAAAAUUACUACUGAGAAGGCACAUGAGGAUCACCCAUGUUUUUC [salish99_ex4_r3_014] (puzzle: Exclusion 4) | 0.0356 | – | – | – |

| Sequence | apparent KD of MS2 coat protein [2] [µM] | apparent KD of MS2 coat protein (input ligand: FMN 200 uM) [µM] | apparent KD of MS2 coat protein (input ligand: none) [µM] | further results |
| --- | --- | --- | --- | --- |
| UUAUAUAGUGUGAGGAUAUGCUGGUCCUUGGAUCAGCAGAAGGCACAUGAGGAUCACCCAUGUAGUUAAAUUUA [Mat - Exclusion 4 - JL Mod - D17] (puzzle: Brourd's mod of Exclusion 4) | 0.0273 | – | – | – |
| AUGCGACAUGAGGAUCACCCAUGUGAGGAUAUGCGAAUGCAUACUUCGGUGUGAUAGAGUAGAAGGCGCAGGUA [EX1 #17] (Eterna round: R97, puzzle: Exclusion 1) | – | 0.472 | 0.761 | – |
| UUAUCAUGCUUUAGAUCCUACAUGAGGAUCACCCAUGUGCUCGUCUUGUAUCGUUCUGUGUCGUAAGUCUCUGUUCG [mod Jandersonlee designer] (Eterna round: R97, puzzle: Sensor, turn-off variant 1) | – | 0.924 | 1.39 | – |
| GGGCUGUCAGGAUAUACAUGAGGAUCACCCAUGUCGAGCUGUGAUAGGGCAAGAGUAGGUAGAAGGGACGAGAG [JR_Exclu3_Sub042] (puzzle: Exclusion 3) | 0.0305 | – | – | – |
| CCCGUGUGAGGAUAUCGUUCACUUGGCGAAAGUCGAGUGGACGAGAAGGUACAUGAGGAUCACCCAUGUGCGGG [-36.1, -35.4 kcal, A 24%] (Eterna round: R97, puzzle: Exclusion 4) | – | 0.155 | 0.134 | – |
| GGGUGACAUGAGGAUCACCCAUGUCAGGAUAUGAUUCUGCUUGCGAAAGCGAGUAGAAUCAGAAGGGACAACCC (Eterna round: R97, puzzle: Exclusion 1) | – | 0.359 | 0.057 | – |
| GGAAAGUGAGGAUAUGGUAAUUUAAUUAUUAAUUAAUUAAUCCAGAAGGCACAUGAGGAUCACCCAUGUAAAGG [Mat - Exclusion 4 - D92] (puzzle: Exclusion 4) | 0.0307 | – | – | – |
| GGAAAGCAAGGAUAUACAAGGAAACGAUGGAAAGUAGAGAGACAUGAGGAUCACCCAUGUAGAAGGUGCGAGAG [JR_Exclu2_Sub037] (puzzle: Exclusion 2) | 0.0249 | – | – | apparent KD of MS2 coat protein [1]: 0.0369 µM; apparent KD of MS2 coat protein [3]: 0.0253 µM |
| AGUUGGCGAGGAUAUACAUGAGGAUCACCCAUGUGAGAGAAAAAAGUGAGGAAGAAAAGUAGAAGGCGCUGACU [salish99_ex3_r3_039] (puzzle: Exclusion 3) | 0.0463 | – | – | apparent KD of MS2 coat protein [1]: 0.313 µM; apparent KD of MS2 coat protein [3]: 0.0604 µM |
| AUGAGGUGAGGAUAUACGAGAUGAUAUUGCAGAGCAAGUCAGUAGAAGGCACAUGAGGAUCACCCAUGUUCGGG [Eternabot (L2) Solution 93] (Eterna round: R97, puzzle: Exclusion 4) | – | 0.269 | 0.397 | – |
| ACCUUACAUGAGGAUCACCCAUGUCAGGAUAUCUCGGACGGCUGAAAACCAACCGUCCAGAGAAGGGACGAGGA [Solamaso] (puzzle: Exclusion 1) | 0.0125 | – | – | – |
| AGAACUCUAGUAGGAUAUGUCGGAUAUGUUGUUGAGGUUCACCCAACGACGUCAAUGACAGAGGGACAGAAGGACUCCUGUUCC [pwkr exNG2 2xFMN 1xF5.9] (Eterna round: R96, puzzle: Exclusion NG 2) | – | 0.873 | 1.11 | apparent KD of MS2 coat protein [4]: 0.506 µM |
| CAGUACUACAAGCUAAGGGACAUGAGGAUCACCCAUGUUCGUCUUAUUGAUCUAGGUACGCUGACGUACCUAGAUCU [JL-sv1-2.18 Brourd mod] (puzzle: Sensor v3, turn-off variant 1) | 0.0208 | – | – | apparent KD of MS2 coat protein [1]: 0.0136 µM; apparent KD of MS2 coat protein [3]: 0.0138 µM |
| CUAUCAAGCAAGGAUAUGCAAAUAAUUAUUUAUGCAGAAGGUGCAACAUGAGGAUCACCCAUGUUUCUGGGUUU [JR_E6_Sub048] (puzzle: Exclusion 6) | 0.0449 | – | – | – |
| CGGGCCGGCCUUCCGGCCGGCCCGACAUGAGGAUCACCCAUGUAGGAUAUCCCGGCUGCCGGCCGGGAGAAGGGCGUGCGUCCG [-50.4, -49.4 kcal, 14% A] (Eterna round: R96, puzzle: Exclusion NG 3) | – | 0.151 | 0.137 | apparent KD of MS2 coat protein [4]: 0.0878 µM |
| UUACUCGCAGGAUAUACGGGACAUACACAUCAAACUACACGACAUGAGGAUCACCCAUGUAGAAGGGCGUUACA [Blue and Green] (Eterna round: R97, puzzle: Exclusion 2) | – | 0.0735 | 0.0512 | – |
| ACAUGCCGCGCAGGAUAUGGGACACAUGAGGAUCACCCAUGUGGUUUCAUGUCUAACCAAGCGUCCCAGAAGGGCGUGAACAUG [Ex NG2 #29] (Eterna round: R96, puzzle: Exclusion NG 2) | – | 0.0309 | 0.0252 | apparent KD of MS2 coat protein [4]: 0.0161 µM |
